Two molecules from patent publication US20250171534A1 (D2M BIOTHERAPEUTICS, published 2025) can be followed below.

In test [1] the target is T1, LILRB2-ECD-His (SinoBiological, Cat #: 14132-H08H-B) (Homo sapiens (Human), UniProt Q8N423 22-460, biotinylated (site not stated)). Kind of test: competition ELISA: plate coated with ANGPTL5, biotinylated LILRB2 pre-incubated with titrated antibody, streptavidin-HRP and TMB, OD450.
In test [2] the target is T2, LILRB1-ECD-HIS (SinoBiological Cat #: 16014-H02H) (human, UniProt Q8NHL6 24-461).
T2 construct: Bought protein; also called monomeric antigen LILRB1-ECD-HIS; not shown: His tag
T2 sequence (Q8NHL6 other isoform, or with tags, fused parts or gaps H02H H02H): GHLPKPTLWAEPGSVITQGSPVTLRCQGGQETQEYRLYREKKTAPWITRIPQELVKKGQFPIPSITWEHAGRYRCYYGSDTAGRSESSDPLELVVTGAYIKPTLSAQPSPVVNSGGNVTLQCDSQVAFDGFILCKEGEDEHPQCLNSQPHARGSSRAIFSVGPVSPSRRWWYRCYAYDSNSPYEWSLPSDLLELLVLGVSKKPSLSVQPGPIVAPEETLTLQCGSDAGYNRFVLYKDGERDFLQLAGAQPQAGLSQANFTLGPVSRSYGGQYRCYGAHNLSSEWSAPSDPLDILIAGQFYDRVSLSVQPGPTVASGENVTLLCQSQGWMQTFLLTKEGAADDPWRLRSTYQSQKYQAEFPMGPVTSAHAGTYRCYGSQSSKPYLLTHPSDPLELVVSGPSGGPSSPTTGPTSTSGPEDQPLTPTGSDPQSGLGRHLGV
Put plainly: SPR (Carterra), LILRB1-ECD-his.

Test [3] deals with T3, human LILRB1 expressed on cells (human, UniProt Q8NHL6 24-650).
T3 construct: In 293T cells it was expressed from pCMV3-LILRB1-GFP; also called CHO-LILRB1; Jurkat-LILRB1
T3 sequence (Q8NHL6 other isoform, or with tags, fused parts or gaps limits assumed): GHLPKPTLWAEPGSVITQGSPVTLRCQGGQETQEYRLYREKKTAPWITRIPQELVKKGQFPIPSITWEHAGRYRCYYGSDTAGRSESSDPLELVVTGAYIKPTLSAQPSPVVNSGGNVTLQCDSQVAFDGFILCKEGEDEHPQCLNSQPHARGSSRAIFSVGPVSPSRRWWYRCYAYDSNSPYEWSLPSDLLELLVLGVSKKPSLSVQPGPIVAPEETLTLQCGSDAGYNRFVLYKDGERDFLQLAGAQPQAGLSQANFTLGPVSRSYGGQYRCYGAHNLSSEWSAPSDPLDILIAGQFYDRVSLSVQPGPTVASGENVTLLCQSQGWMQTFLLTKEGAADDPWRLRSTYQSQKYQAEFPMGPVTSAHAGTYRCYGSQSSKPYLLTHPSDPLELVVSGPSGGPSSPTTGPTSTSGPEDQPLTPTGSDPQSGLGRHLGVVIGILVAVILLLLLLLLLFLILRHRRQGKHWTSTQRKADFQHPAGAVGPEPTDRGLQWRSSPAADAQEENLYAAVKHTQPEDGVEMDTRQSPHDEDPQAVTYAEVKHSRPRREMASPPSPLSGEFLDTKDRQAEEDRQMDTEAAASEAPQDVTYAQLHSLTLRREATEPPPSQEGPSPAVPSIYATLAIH
Put plainly: flow cytometry on CHO-LILRB1 cells (CHO-RB1); D2M002-126 as stock or kept in PBS or human plasma at 37 °C for 1, 2 or 3 weeks; labelled anti-human Fc, gMFI. A general note: Flow cytometry measures light scatter and fluorescence of single cells or particles in a stream.

For test [4], the target named is T4, human LILRB2 expressed on cells (human, UniProt Q8N423 22-597).
T4 construct: In 293T cells it was expressed from pCMV3-LILRB2-GFP; also called CHO-LILRB2; Jurkat-LILRB2
T4 sequence (Q8N423 other isoform, or with tags, fused parts or gaps limits assumed): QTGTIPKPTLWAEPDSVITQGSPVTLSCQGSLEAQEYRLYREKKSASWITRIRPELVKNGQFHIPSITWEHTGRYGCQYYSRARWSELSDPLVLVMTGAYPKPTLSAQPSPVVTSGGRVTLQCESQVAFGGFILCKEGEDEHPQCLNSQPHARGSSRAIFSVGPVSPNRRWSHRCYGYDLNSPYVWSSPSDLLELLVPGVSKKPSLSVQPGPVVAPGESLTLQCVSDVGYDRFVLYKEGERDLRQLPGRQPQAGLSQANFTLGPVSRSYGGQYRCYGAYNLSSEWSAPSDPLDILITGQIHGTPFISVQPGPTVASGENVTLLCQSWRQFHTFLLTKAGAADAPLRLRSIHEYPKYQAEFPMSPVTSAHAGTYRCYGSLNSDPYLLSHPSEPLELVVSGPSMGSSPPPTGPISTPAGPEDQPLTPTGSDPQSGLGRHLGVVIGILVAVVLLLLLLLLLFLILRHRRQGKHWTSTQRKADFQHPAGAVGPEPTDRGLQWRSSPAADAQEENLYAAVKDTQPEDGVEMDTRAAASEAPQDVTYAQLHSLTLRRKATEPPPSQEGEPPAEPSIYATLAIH
Kind of test: flow cytometry on CHO-LILRB2 cells (CHO-RB2), titrated antibody, labelled anti-human Fc, gMFI.

The target of test [5] is T5, LILRA6 expressed on cells (human, UniProt Q6PI73 24-481).
T5 construct: whole, on cells; GFP-tagged; also called human LILRA6; CHO-LILRA6
T5 sequence (Q6PI73 24-481): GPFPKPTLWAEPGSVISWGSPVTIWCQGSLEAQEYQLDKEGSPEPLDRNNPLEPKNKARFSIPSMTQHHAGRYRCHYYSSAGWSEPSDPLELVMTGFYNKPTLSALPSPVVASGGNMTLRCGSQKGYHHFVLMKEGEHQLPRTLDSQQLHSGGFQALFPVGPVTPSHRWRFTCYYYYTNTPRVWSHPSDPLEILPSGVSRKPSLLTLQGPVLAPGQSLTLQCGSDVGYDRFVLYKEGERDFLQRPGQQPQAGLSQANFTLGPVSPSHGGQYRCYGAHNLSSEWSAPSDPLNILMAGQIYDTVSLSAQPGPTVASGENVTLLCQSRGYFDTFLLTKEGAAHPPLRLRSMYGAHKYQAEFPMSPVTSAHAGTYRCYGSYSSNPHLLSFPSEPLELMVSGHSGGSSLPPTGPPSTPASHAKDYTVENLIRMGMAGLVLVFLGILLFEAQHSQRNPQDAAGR
Kind of test: flow cytometry on CHO-LILRA6 cells (CHO-RA6), titrated antibody, labelled anti-human Fc, gMFI.

Test [6] has as its target T6, LILRB2-ECD-HIS (SinoBiological Cat #: 14132-H02H) (human, UniProt Q8N423 22-460).
T6 construct: Bought protein; also called monomeric antigen LILRB2-ECD-HIS; not shown: His tag
Kind of test: SPR (Carterra), LILRB2-ECD-his.

For test [7], the target named is T3, human LILRB1 expressed on cells. Put plainly: flow cytometry, Jurkat-LILRB1 cells.
The target is the same in test [8]. Kind of test: flow cytometry on CHO-LILRB1 cells (CHO-RB1), titrated antibody, labelled anti-human Fc, gMFI.
For test [9], the target named is T7, LILRB3 expressed on cells (human, UniProt O75022 24-631).
T7 construct: whole, on cells; Expressed with a GFP tag from the bought plasmid; also called human LILRB3; CHO-LILRB3
Put plainly: flow cytometry on CHO-LILRB3 cells (CHO-RB3), titrated antibody, labelled anti-human Fc, gMFI.

The target of test [10] is T8, LILRA1 expressed on cells (human, UniProt O75019 17-489).
T8 construct: whole, on cells; GFP-tagged; also called human LILRA1; CHO-LILRA1
T8 sequence (O75019 17-489): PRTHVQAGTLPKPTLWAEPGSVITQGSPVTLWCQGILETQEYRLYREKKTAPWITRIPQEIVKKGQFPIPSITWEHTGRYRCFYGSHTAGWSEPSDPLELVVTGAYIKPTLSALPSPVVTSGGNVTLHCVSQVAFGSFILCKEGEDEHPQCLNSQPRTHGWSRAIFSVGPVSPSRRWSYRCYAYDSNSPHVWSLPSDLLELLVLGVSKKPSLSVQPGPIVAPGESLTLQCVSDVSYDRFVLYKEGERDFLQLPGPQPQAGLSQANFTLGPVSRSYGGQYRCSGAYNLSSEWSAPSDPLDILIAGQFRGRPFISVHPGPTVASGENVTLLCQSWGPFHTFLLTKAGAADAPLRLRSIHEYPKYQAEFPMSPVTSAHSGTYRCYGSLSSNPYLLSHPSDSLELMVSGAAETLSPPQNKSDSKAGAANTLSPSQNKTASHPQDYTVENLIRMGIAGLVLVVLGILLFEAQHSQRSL
Put plainly: flow cytometry on CHO-LILRA1 cells (CHO-RA1), titrated antibody, labelled anti-human Fc, gMFI.

In test [11] the target is T1, LILRB2-ECD-His (SinoBiological, Cat #: …). Kind of test: competition ELISA: plate coated with ANGPTL2, biotinylated LILRB2 pre-incubated with titrated antibody, streptavidin-HRP and TMB, OD450.
Test [12] addresses T8, LILRA1 expressed on cells. Put plainly: flow cytometry on CHO-LILRA1 cells, non-linear fit of the curves of FIG. 26E.
Test [13] deals with T4, human LILRB2 expressed on cells. Put plainly: flow cytometry, Jurkat-LILRB2 cells.
The target is the same in test [14]. Put plainly: flow cytometry on CHO-LILRB2 cells (CHO-RB2); D2M002-126 as stock or kept in PBS or human plasma at 37 °C for 1, 2 or 3 weeks; labelled anti-human Fc, gMFI.
The target of test [15] is T1, LILRB2-ECD-His (SinoBiological, Cat #: …). Put plainly: competition ELISA: plate coated with MAG, biotinylated LILRB2 pre-incubated with titrated antibody, streptavidin-HRP and TMB, OD450. (In general: An ELISA detects its analyte on a solid surface through an enzyme-linked reagent.)
Test [16] concerns the target T4, human LILRB2 expressed on cells. Put plainly: flow cytometry on CHO-LILRB2 cells, non-linear fit of the curves of FIG. 26B.
Test [17] concerns the target T2, LILRB1-ECD-HIS (SinoBiological Cat #: …). Kind of test: BLI (Gator), RB1-ECD-his.
Test [18] has as its target T1, LILRB2-ECD-His (SinoBiological, Cat #: …). Kind of test: competition ELISA: plate coated with CD1D, biotinylated LILRB2 pre-incubated with titrated antibody, streptavidin-HRP and TMB, OD450.
Test [19] deals with T4, human LILRB2 expressed on cells. Kind of test: flow cytometry, Jurkat-LILRB2 cells; blocked ligand: APC HLA-G monomer tetramer.
Test [20] addresses T1, LILRB2-ECD-His (SinoBiological, Cat #: …). Put plainly: competition ELISA: plate coated with SEMA4A, biotinylated LILRB2 pre-incubated with titrated antibody, streptavidin-HRP and TMB, OD450.
Test [21] has the same target. Kind of test: competition ELISA: plate coated with CD1C, biotinylated LILRB2 pre-incubated with titrated antibody, streptavidin-HRP and TMB, OD450.
Test [22] deals with T3, human LILRB1 expressed on cells. Kind of test: flow cytometry on CHO-LILRB1 cells, non-linear fit of the curves of FIG. 26A.
The target of test [23] is T6, LILRB2-ECD-HIS (SinoBiological Cat #: …). Kind of test: BLI (Gator), RB2-ECD-his.
Test [24] concerns the target T3, human LILRB1 expressed on cells. Kind of test: flow cytometry, Jurkat-LILRB1 cells; blocked ligand: APC HLA-G trimer tetramer.
Test [25] concerns the target T4, human LILRB2 expressed on cells. Kind of test: flow cytometry, CHO-LILRB2 cells.
The target in test [26] is T3, human LILRB1 expressed on cells. Put plainly: flow cytometry, CHO-LILRB1 cells.
Test [27] addresses T4, human LILRB2 expressed on cells. Put plainly: flow cytometry, CHO-LILRB2 cells. This is another data set of the same source.
Test [28] has as its target T6, LILRB2-ECD-HIS (SinoBiological Cat #: …). Put plainly: SPR (Carterra LSA), antibody captured, antigen injected.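 Note: kd obtained from kinetic analysis of antibody binding to the antigen, with association and dissociation phases fitted in the instrument software.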
For test [29], the target named is T2, LILRB1-ECD-HIS (SinoBiological Cat #: …). The test is described as above.

T6 sequence (Q8N423 other isoform, or with tags, fused parts or gaps H02H H02H): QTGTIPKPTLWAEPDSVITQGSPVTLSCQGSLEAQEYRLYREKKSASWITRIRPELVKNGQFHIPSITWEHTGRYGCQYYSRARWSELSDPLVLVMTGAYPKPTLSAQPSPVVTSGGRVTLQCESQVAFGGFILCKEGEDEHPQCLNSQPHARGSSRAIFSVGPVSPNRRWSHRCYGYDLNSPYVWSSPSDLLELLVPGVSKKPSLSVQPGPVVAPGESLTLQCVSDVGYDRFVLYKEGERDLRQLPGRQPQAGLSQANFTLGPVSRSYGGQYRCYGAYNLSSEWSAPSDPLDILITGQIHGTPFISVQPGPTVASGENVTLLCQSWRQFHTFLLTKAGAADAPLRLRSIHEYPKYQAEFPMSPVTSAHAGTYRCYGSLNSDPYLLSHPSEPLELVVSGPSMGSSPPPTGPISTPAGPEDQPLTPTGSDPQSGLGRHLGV
T1 sequence (Q8N423 other isoform, or with tags, fused parts or gaps H08H H08H): as the sequence (Q8N423 other isoform, or with tags, fused parts or gaps H02H H02H) above

B1: D2M002-126 (antibody, V domains shown)
VH: QVQLVQSGAEVKKPGASVKVSCKASGYTFTSYWIEWVRQAPGQGLEWIGEILPGDESTNYNAKFKGRVTFTTDTSTSTAYMELRSLRSDDTAVYYCARSGAGGYDSGAFAYWGQGTLVTVSS
VL: AIQLTQSPSSLSASVGDRVTITCRASESVDTYGNSFMHWYQQKPGKAPKLLVYRTSNLESGVPSRFSGSGSGTDFTLTISSLQPEDFATYYCQQSNEDPWTFGGGTKVEIK
notes: Humanized and optimized variant of D2M002-026
As a reminder, the Kd is a measure of binding affinity in units of concentration. Low readings indicate tighter binding, high ones weaker binding. Broadly, the koff is the rate constant with which the complex falls apart. Read a high koff as fast dissociation. As a reminder, the kon is the rate constant with which the complex forms. The low end stands for slower complex formation, the high end for faster complex formation. As usually defined, the EC50 (read off the curve) is the concentration that produces a half-maximal response. One may read the EC50 as the concentration giving half of the maximal effect. A higher EC50 goes with weaker potency. As usually defined, the IC50 is the concentration that inhibits the measured activity by half. Read a low IC50 as inhibition by little substance. Take B1: the “IC50 (read off the curve)” value was roughly 1 µg/mL in [1]; roughly 1 µg/mL in test [11]; roughly 1 µg/mL in [15]; roughly 2 µg/mL in test [18]; roughly 1 µg/mL in test [20]; roughly 2 µg/mL in test [21]. In addition, the Kd was determined as 0.515 nM in test [2], 0.119 nM in [6], 0.366 nM in test [17] and 0.0482 nM in [23]. Further, the results for the koff in test [2] and in [6] were 2.17e-05 s⁻¹ and 5.89e-05 s⁻¹, respectively. Further, the kon in test [2] is 42100 M⁻¹ s⁻¹; in test [6] it was 496000 M⁻¹ s⁻¹. Besides, the “EC50 (read off the curve)” value in test [3] is roughly 0.3 µg/mL; in test [4], roughly 0.2 µg/mL; in [8], roughly 0.4 µg/mL; in test [10], roughly 0.1 µg/mL; in test [14], roughly 0.1 µg/mL. The binding result in [5] and in test [9] was “no binding (tested: about 30 µg/mL (log10 about 1.5))” each time. The EC50 in test [7] stood at 1.45 µg/mL; in test [12] it was 0.102 µg/mL; in test [13], 0.081 µg/mL; in test [16], 0.206 µg/mL; in test [22], 0.388 µg/mL. The MaxMFI came to 27500 in [12], 33600 in [16] and 113000 in test [22]. Moreover, the concentration for half-maximal inhibition (IC50) in test [19] was 0.015 µg/mL; in [24], 0.304 µg/mL.

B2: D2M002-044 (antibody, human IgG1, V domains shown)
VH: EVQLQQSGAELVRPGALVKLSCKGSGFNIKDYYMHWVRQRPEQGLEWIGWIDPENGNTVYAPKFQGKASITSDTSSNIAYLQFSSLTSEDTAVYYCARSRDHGAMDYWGQGTSVTVSS
VL: DVQITQSPAIMSASPGEKVTLTCSASSSVSSSNLYWYQQKPGSSPKLWIYSTSNLASGVPARFSGSGFGTSYALTISSMEAEDAASYFCHQWSSYPYTFGGGTKLEIK
notes: Hit; also called clone #44
Regarding B2, in [25], the “EC50 (read off the curve)” value is roughly 0.06 µg/mL. Besides, the binding result in test [26] was “no binding (tested: 5 µg/mL)”. In addition, in test [27], the EC50 is 0.061 µg/mL and the “gMFI (max)” value amounted to 22900. This molecule also gave a Kd in [28] of 4.85 nM. This molecule also gave a Kd in [29] of 1000 nM.
